Measurements as given in EP2402371A1 (SANOFI, dated 2012).

T1: human GPVI on the platelet surface (human, UniProt Q9HCN6 21-339)
T1 sequence (looked up): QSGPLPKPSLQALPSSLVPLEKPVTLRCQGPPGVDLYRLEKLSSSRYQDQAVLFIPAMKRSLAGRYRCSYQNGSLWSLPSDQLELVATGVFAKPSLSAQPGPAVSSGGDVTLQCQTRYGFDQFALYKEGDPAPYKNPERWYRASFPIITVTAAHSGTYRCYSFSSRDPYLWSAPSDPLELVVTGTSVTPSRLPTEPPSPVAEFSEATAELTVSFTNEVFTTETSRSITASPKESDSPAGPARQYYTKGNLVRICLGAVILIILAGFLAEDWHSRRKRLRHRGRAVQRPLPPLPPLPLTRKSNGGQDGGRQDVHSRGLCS


Columns and labels:
[1] = biological target: T1, human GPVI on the platelet surface; assay: cell-based or functional assay
hGPVI-hFc fusion protein [2] = biological target: T2, hGPVI-hFc fusion protein (human); assay: competition assay, GPVI-Fc pre-incubated with Fab, binding to collagen-coated plates (DELFIA), Test 1
T2 construct: also called GPVI-Fc fusion protein; human GPVI-Fc

hGPVI-hFc fusion protein [3] = biological target: T2, hGPVI-hFc fusion protein; assay: competition assay, GPVI-Fc pre-incubated with Fab, binding to collagen-coated plates (DELFIA), Test 2
hGPVI-hFc fusion protein [4] = biological target: T2, hGPVI-hFc fusion protein; assay: competition assay, GPVI-Fc pre-incubated with Fab, binding to collagen-coated plates (DELFIA), Test 3

Binder | IC50 for inhibition of collagen induced platelet aggregation (human platelet rich plasma), Test 1 [1] | IC50 for inhibition of collagen induced platelet aggregation (human platelet rich plasma), Test 2 [1] | IC50 for inhibition of collagen induced platelet aggregation (human platelet rich plasma), Test 3 [1] | IC50 (hGPVI-hFc fusion protein [2]) | IC50 (hGPVI-hFc fusion protein [3]) | IC50 (hGPVI-hFc fusion protein [4])
humanized anti-GPVI Fab VL1/VH2 (Fab, V domains shown) VH: QVQLQESGPGLVAPSQSLSITCTVSGFSLTGYGVNWVRQPPSRGLEWLGMIWGDGSTDYQSTLKSRLSISKDNSKSQVFLKMNSLTTDDTARYYCARDLPMDYWGQGTSVTVSS VL: DIQMTQSPSSLSASVGGRVTITCKASQDINKYIAWYQHKPGKGPSLLIHYTSTLQPGVPSRFSGSGSGRDYSFSISNLQPEDIATYYCLQYANLLTFGGGTKLEIKR | 2.3 µg/mL | 2 µg/mL | 1.1 µg/mL |  |  | 
humanized anti-GPVI Fab VL1/VH3 (Fab, V domains shown) VH: EVQLLESGPGLVAPSGSLSITCTVSGFSLTGYGVNWVRQPPGKGLEWLGMIWGDGSTDYQSTLKSRLSISKDNSKSQVFLKMNSLRTDDTARYYCARDLPMDYWGLGTSVTVSS VL: DIQMTQSPSSLSASVGGRVTITCKASQDINKYIAWYQHKPGKGPSLLIHYTSTLQPGVPSRFSGSGSGRDYSFSISNLQPEDIATYYCLQYANLLTFGGGTKLEIKR | 1.7 µg/mL | 1.5 µg/mL | 1.5 µg/mL |  |  | 
humanized anti-GPVI Fab VL1/VH1 (Fab, V domains shown) VH: QVQLQESGPGLVAPSQSLSITCTVSGFSLTGYGVNWVRQPPSRGLEWLGMIWGDGSTDYQSTLKSRLSISKDTSKSQVFLKMNSLTTDDTARYYCARDLPMDYWGQGTSVTVSS VL: DIQMTQSPSSLSASVGGRVTITCKASQDINKYIAWYQHKPGKGPSLLIHYTSTLQPGVPSRFSGSGSGRDYSFSISNLQPEDIATYYCLQYANLLTFGGGTKLEIKR | 1.5 µg/mL | 2.3 µg/mL |  |  |  | 
humanized anti-GPVI Fab VL1/VH5 (Fab, V domains shown) VH: QVQLQESGPGLVAPSQSLSITCTVSGFSLTGYGVNWVRQPPSRGLEWLGMIWGDGSTDYQSTLKSRLSISKDNSKSQVFLKMNSLTTDDTARYYCARDLPMDEWGQGTSVTVSS VL: DIQMTQSPSSLSASVGGRVTITCKASQDINKYIAWYQHKPGKGPSLLIHYTSTLQPGVPSRFSGSGSGRDYSFSISNLQPEDIATYYCLQYANLLTFGGGTKLEIKR | 1.9 µg/mL | 2.3 µg/mL | 1.2 µg/mL |  |  | 
humanized anti-GPVI Fab VL1/VH4 (Fab, V domains shown) VH: QVQLQESGPGLVAPSQSLSITCTVSGFSLTYYGVNWVRQPPSRGLEWLGMIWGDGSTDYQSTLKSRLSISKDNSKSQVFLKMNSLTTDDTARYYCARDLPMDYWGQGTSVTVSS VL: DIQMTQSPSSLSASVGGRVTITCKASQDINKYIAWYQHKPGKGPSLLIHYTSTLQPGVPSRFSGSGSGRDYSFSISNLQPEDIATYYCLQYANLLTFGGGTKLEIKR | 1.6 µg/mL | 1.8 µg/mL | 1.2 µg/mL |  |  | 

Further lines, results first:

IC50 for inhibition of collagen induced platelet aggregation (human platelet rich plasma), Test 1 [1] | IC50 for inhibition of collagen induced platelet aggregation (human platelet rich plasma), Test 2 [1] | IC50 for inhibition of collagen induced platelet aggregation (human platelet rich plasma), Test 3 [1] | IC50 (hGPVI-hFc fusion protein [2]) | IC50 (hGPVI-hFc fusion protein [3]) | IC50 (hGPVI-hFc fusion protein [4]) | Binder
1.6 µg/mL | 6.4 µg/mL | 1.3 µg/mL | 0.49 µg/mL | 0.56 µg/mL | 0.99 µg/mL | non-humanized Fab construct based on the original clone 390 without the His-tag (Fab, V domains shown) VH: QVQLKESGPGLVAPSQSLSITCTVSGFSLTGYGVNWVRQPPGKGLEWLGMIWGDGSTDYNSTLKSRLSISKDNSKSQVFLKMNSLQTDDTARYYCARDLPMDYWGQGTSVTVSS VL: DIQMTQSPSSLSASLGGKVTITCKASQDINKYIAWYQHKPGKGPSLLIHYTSTLQPGIPSRFSGSGSGRDYSFSISNLEPEDIATYYCLQYANLLTFGGGTKLEIKR
1 µg/mL | 2.3 µg/mL | 2 µg/mL |  |  |  | humanized anti-GPVI Fab VL3/VH4 (Fab, V domains shown) VH: QVQLQESGPGLVAPSQSLSITCTVSGFSLTYYGVNWVRQPPSRGLEWLGMIWGDGSTDYQSTLKSRLSISKDNSKSQVFLKMNSLTTDDTARYYCARDLPMDYWGQGTSVTVSS VL: DIQMTQSPSSLSASVGGRVTITCKASQDINKYIAWYQHKPGKGPSLLIHYTSTLQPGVPSRFSGSGSGRDYSFSISNLQPEDIATYYCLQYALLLTFGGGTKLEIKR
1.4 µg/mL | 2.4 µg/mL | 2.3 µg/mL |  |  |  | humanized anti-GPVI Fab VL2/VH2 (Fab, V domains shown) VH: QVQLQESGPGLVAPSQSLSITCTVSGFSLTGYGVNWVRQPPSRGLEWLGMIWGDGSTDYQSTLKSRLSISKDNSKSQVFLKMNSLTTDDTARYYCARDLPMDYWGQGTSVTVSS VL: DIQMTQSPSSLSASVGGRVTITCKASQDINKYIAWYQHKPGKGPSLLIHYTSTLQPGVPSRFSGSGSGRDYSFSISNLQPEDIATYYCLQYAHLLTFGGGTKLEIKR
1.9 µg/mL | 0.9 µg/mL | 2.1 µg/mL |  |  |  | humanized anti-GPVI Fab VL3/VH2 (Fab, V domains shown) VH: QVQLQESGPGLVAPSQSLSITCTVSGFSLTGYGVNWVRQPPSRGLEWLGMIWGDGSTDYQSTLKSRLSISKDNSKSQVFLKMNSLTTDDTARYYCARDLPMDYWGQGTSVTVSS VL: DIQMTQSPSSLSASVGGRVTITCKASQDINKYIAWYQHKPGKGPSLLIHYTSTLQPGVPSRFSGSGSGRDYSFSISNLQPEDIATYYCLQYALLLTFGGGTKLEIKR
